In patent US20120322150A1, “Mechanism and Method for Regulating Glycogen Synthase Kinase 3 (GSK3)-Related Kinases” (CARNEGIE INSTITUTION OF WASHINGTON, priority 2009, published 2012):

How the values were obtained:
[1] = system: phospho-myelin basic protein; test: In vitro phosphatase assay using phospho-myelin basic protein; type: biochemical
Method: In vitro phosphatase assay using phospho-myelin basic protein was performed according to manufacturer's protocol (New England Biolab. Beverly, Mass.). To examine tyrosine phosphatase activity of BSU 1, 20 mM p-nitrophenyl phosphate was incubated with MBP-BSD) in 50 uL of reaction buffer (50 mM Tris. pH 7.2, 20 mM NaCl, 5 mM DTT, 10 RIM MgCl2). The reaction was quenched by the addition of 100 uL of 0.5 M NaOH after incubation at 30° C. for 1 hr. p-Nitrophenol production was determined by measuring A405 (extinction coefficient, e=1.78×104 M-tCm J).

[2] = system: phosphorylated BZR1 and BZR2; test: In vitro dephosphorylation of pre-phosphorylated BZR1 and BZR2; type: biochemical, Arabidopsis; conditions: added after BIN2 and ATP were removed
Method: MBP-BZR1 and GST-BIN2 proteins were expressed and purified from E. coli and maltose or glutathione was removed from the proteins by ultrafiltration using Centricon 30 (Amicon Ultra, Millipore, Billerica, Mass.). To prepare fully phosphorylated BZR1 proteins, MBP-BZR1 protein was incubated with GST BIN2 as 1 to 1 ratio in the kinase buffer containing 100 μM ATP at 30° C. overnight. The protein mixture was incubated with glutathione Sepharose beads to remove GSTBIN2, then with amylose beads to purify MBP-pBZR1. Partially phosphorylated 32Plabeled pBZR1 and pBZR2 were prepared by the same method but MBP-BZR1 or MBP-BZR2 was incubated with GST BIN2 at a 15 to 1 ratio for 3 hrs in the presence of […] 32P-γATP. For dephosphorylation, GST-BSU1 was incubated with fully phosphorylated MBP-pBZR1 and 32P-MBP-pBZR1 or 32 P-MBP-pBZR2 for 12 or 16 Ins, […]

BIN2 = biological target: T1, BIN2 (Arabidopsis thaliana, UniProt Q39011); test: In vitro BIN2 inhibition assay (BIN2 phosphorylation of BZR1); type: biochemical
T1 construct: made in house; host or cells: E. coli
T1 sequence (Q39011 1-380): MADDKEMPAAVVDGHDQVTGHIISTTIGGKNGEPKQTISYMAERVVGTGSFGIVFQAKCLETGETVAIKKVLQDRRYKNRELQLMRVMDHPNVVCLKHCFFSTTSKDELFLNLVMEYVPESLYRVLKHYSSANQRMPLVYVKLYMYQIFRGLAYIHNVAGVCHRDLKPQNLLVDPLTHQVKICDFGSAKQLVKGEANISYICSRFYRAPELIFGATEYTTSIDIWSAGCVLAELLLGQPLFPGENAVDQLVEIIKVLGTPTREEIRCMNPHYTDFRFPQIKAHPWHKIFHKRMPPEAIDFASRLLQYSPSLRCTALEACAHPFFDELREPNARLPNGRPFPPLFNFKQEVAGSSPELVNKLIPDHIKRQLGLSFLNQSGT
Method: In vitro BIN2 inhibition assays were performed by 3 hrs co-incubation of MBP-BZR1, GST BIN2, GST BSU1 and ^32P-γATP or pre-incubation of GST-BIN2 with GST-BSU1 for various time followed by adding MBP-BZR1 and 32P-γATP. The examine activities of partial BSU1, N-terminal Kelch (1-363th amino acid) and C-terminal phosphatase (364-793th amino acid) region were used. GST, GST-BSU1, GSTBSU1-Ketch and GST-BSU1-phosphatase were pre-incubated with GST-BIN2 for 1 hr, and further incubated with MBP-BZR1 and ^32P-γATP for 3 hrs.
To test activities of BSU1-YFP, anti-GFP antibody-Protein A beads were used to immunoprecipitate BSU1-YFP from extracts of BSU1-YFP transgenic plants, and non-transgenic wild type plants were used as control. The beads were incubated with GST-BIN2 or GST bin2-1 for 1 hr, and then the beads were removed. The BSU1-treated GST-BIN2 or GST-bin2-1 was further incubated with MBP-BZR1 and ^32P-γATP for 3 hrs.

PP1 = biological target: T2, PP1 (Homo sapiens, UniProt P36873); test: Inhibition of PP1 activity on BIN2; type: biochemical, mammalian
T2 construct: made in house; host or cells: E. coli
T2 sequence (P36873 whole entry): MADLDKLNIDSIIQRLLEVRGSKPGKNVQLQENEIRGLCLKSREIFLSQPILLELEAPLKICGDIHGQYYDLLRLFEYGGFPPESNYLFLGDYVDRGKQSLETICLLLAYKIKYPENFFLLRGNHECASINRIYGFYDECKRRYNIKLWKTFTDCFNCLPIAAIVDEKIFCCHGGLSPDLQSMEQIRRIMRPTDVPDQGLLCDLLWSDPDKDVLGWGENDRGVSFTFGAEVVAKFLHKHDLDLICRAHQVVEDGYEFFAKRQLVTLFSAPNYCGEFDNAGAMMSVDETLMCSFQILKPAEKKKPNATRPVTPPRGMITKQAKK
Method: It was next examined whether the mammalian homolog to BSU1, PP1, would dephosphorylate BIN2. A GST-tagged BIN2 was isolated from cells and incubated with PP1 purified from E. coli cells expressing the phosphatase.

B1: BSL1: closest homolog of BSU1 (SEQ ID NO: 28) (protein, listed as Arabidopsis thaliana)
chain: MGSKPWLHPAPQYKTLETFWDDEDDAPGPRCAHTLTAVAATKTHGPRLILFGGATAIEGGSSSVPGIRLAGVTNTVHSYDILTRKWTRLKPAGEPPSPRAAHAAAAVGTMVVFQGGIGPAGHSTDDLYVLDMTNDKFKWHRVVVQGDGPGPRYGHVMDLVSQRYLVTVTGNDGKRALSDAWALDTAQKPYVWQRLNPDGDRPSARMYASGSARSDGMFLLCGGRDTLGAPLGDAYGLLMHRNGQWEWTLAPGVAPSPRYQHAAVFVGARLHVSGGVLRGGRVIDAEASVAVLDTAAGVWLDRNGQVTSARGSKGQIDQDPSFELMRRCRHGAASVGIRIYVHGGLRGDVLLDDFLVAENSTFQSDISSPLLASDRTQQSSTPRFSYAARPPSGSEPSFSMSEGLSLDENSLEKLTEASAAEAEVASSVWRAAQLGAGTLDEEPSTSDASSPIVESTTDGTANEGDVRLHPRAVVVAKETVGSLGGMVRQLSLDQFQNESRRMVPMNNSDVPQPTKKFTRQKSPQGLHKKVIAALLRPRNWKPPGNRKFFLDSYEVGELCYAAEQIFMHEQTVLQLKAPIKVFGDLHGQFGDLMRLFDEYGFPSTAGDITYIDYLFLGDYVDRGQHSLETITLLLALKIEYPENVHLIRGNHEAADINALFGFRLECIERMGENDGIWAWTRFNQLFNYLPLAALIENKIICMHGGIGRSISTVEQIEKIERPITMDAGSLVLMDLLWSDPTENDSIEGLRPNARGPGLVTFGPDRVTEFCKRNKLQLIIRAHECVMDGFERFAQGQLITLFSATNYCGTANNAGAILVVGRGLVIVPKLIHPLPPPILSPENSPEHSGDDAWMQELNIQRPPTPTRGRPQPDFDRSSLAYI
With B1 the “phosphatase activity on phosphorylated myelin basic protein” value ([1]; protein purified from E.coli, metal ions 1 mM) was “showed manganese-dependent phosphatase activities”, the “dephosphorylation of pre-phosphorylated BZR1 / BZR2” value [2] was “do not dephosphorylate phosphorylated BZR1 and BZR2” and the “BIN2 phosphorylation of BZR1, co-incubation” value (BIN2; co-incubated with BIN2 and BZR1, 32P-γATP, 3 hrs) was “inhibit B1N2 phosphorylation of BZR1 and BZR2”.

B2: PP2: PP1 inhibitor, protein phosphatase inhibitor 2 (protein, UniProt P41236 2-205, looked up)
Protein phosphatase inhibitor …: AASTASHRPIKGILKNKTSTTSSMVASAEQPRGNVDEELSKKSQKWDEMNILATYHPADKDYGLMKIDEPSTPYHSMMGDDEDACSDTEATEAMAPDILARKLAAAEGLEPKYRIQEQESSGEEDSDLSPEEREKKRQFEMKRKLHYNEGLNIKLARQLISKDLHDDDEDEEMLETADGESMNTEESNQGSTPSDQQQNKLRSS
With B2 the “enzymatic activity of PP1 on BIN2” value (PP1) was “inhibited the enzymatic activity of the PP1 phosphatase on BIN2”.

B3: Kelch repeat domain: N-terminal Kelch (1-363th amino acid) region of BSU1 (protein)
chain: MAPDQSYQYPSPSYESIQTFYDTDEDWPGPRCGHTLTAVFVNNSHQLILFGGSTTAVANHNSSLPEISLDGVTNSVHSFDVLTRKWTRLNPIGDVPSPRACHAAALYGTLILIQGGIGPSGPSDGDVYMLDMTNNKWIKFLVGGETPSPRYGHVMDIAAQRWLVIFSGNNGNEILDDTWALDTRGPFSWDRLNPSGNQPSGRMYASGSSREDGIFLLCGGIDHSGVTLGDTYGLKMDSDNVWTPVPAVAPSPRYQHTAVFGGSKLHVIGGILNRARLIDGEAVVAVLDTETGEWVDTNQPETSASGANRQNQYQLMRRCHHAAASFGSHLYVHGGIREDVLLDDLLVAETSQSSSPEPEEDNP
modifications: left off: a dimerising Fc or GST
notes: N-terminal Kelch (1-363th amino acid) region of BSU1
With B3 the “BIN2 phosphorylation of BZR1, pre-incubation” value (BIN2; pre-incubated with BIN2 before adding BZR1) was “showed no effect”.

B4: BSU1-D5ION: mutant BSU1, Asp510 to Asn, with reduced phosphatase activity (protein, UniProt Q9LR78 1-793, looked up, variant D510N)
Serine/threonine-protein …: MAPDQSYQYPSPSYESIQTFYDTDEDWPGPRCGHTLTAVFVNNSHQLILFGGSTTAVANHNSSLPEISLDGVTNSVHSFDVLTRKWTRLNPIGDVPSPRACHAAALYGTLILIQGGIGPSGPSDGDVYMLDMTNNKWIKFLVGGETPSPRYGHVMDIAAQRWLVIFSGNNGNEILDDTWALDTRGPFSWDRLNPSGNQPSGRMYASGSSREDGIFLLCGGIDHSGVTLGDTYGLKMDSDNVWTPVPAVAPSPRYQHTAVFGGSKLHVIGGILNRARLIDGEAVVAVLDTETGEWVDTNQPETSASGANRQNQYQLMRRCHHAAASFGSHLYVHGGIREDVLLDDLLVAETSQSSSPEPEEDNPDNYMLLDDYLMDEPKPLSSEPEASSFIMRSTSEIAMDRLAEAHNLPTIENAFYDSAIEGYVPLQHGAETVGNRGGLVRTASLDQSTQDLHKKVISTLLRPKTWTPPANRDFFLSYLEVKHLCDEVEKIFMNEPTLLQLKVPIKVFGNIHGQYGDLMRLFHEYGHPSVEGDITHIDYLFLGDYVDRGQHSLEIIMLLFALKIEYPKNIHLIRGNHESLAMNRIYGFLTECEERMGESYGFEAWLKINQVFDYLPLAALLEKKVLCVHGGIGRAVTIEEIENIERPAFPDTGSMVLKDILWSDPTMNDTVLGIVDNARGEGVVSFGPDIVKAFLERNGLEMILRAHECVIDGFERFADGRLITVFSATNYCGTAQNAGAILVIGRDMVIYPKLIHPHPPPISSSEEDYTDKAWMQELNIEMPPTPARGESSE
B4 was tested, and the “phosphatase activity of the wild type protein” value ([1]; phospho-myelin basic proteins as a substrate) was “about 15%”.
